Earlier results as cited in article PMC11853434.
pKd: −log10 of the molar value. Where two headings read alike, the source gives them in different places.

How the values were obtained:
[1] = target: SARS-CoV-2 spike RBD RBD (Severe acute respiratory syndrome coronavirus 2) (UniProt P0DTC2)
[2] = target: SARS-CoV-2 spike RBD RBD (Severe acute respiratory syndrome coronavirus 2) (UniProt P0DTC2); remark: listed apart in the source

Substance: casirivimab
- pKd [1]: 8.47

Substance: imdevimab
- pKd [2]: 7.34
